Changes are numbered by the printed parent chain.
B1: 11F8 VHH-Fc (Fc fusion)
chain: QVQLVESGGGLVQAGGSLRLSCAASGRTVGYYAVGWFRQAPGKERDFVAAISWSGRNTNYADSVTGRFTIFRDNAKNTVDLQMNSLKPEDTAVYYCAADYWNYGSGSEVPNNYDTWGQGTQVTVSS
B2: 7A9 VHH-Fc (Fc fusion)
chain: QVQLVESGGGLVQAGGSLRLSCSASGGTASRSAMGWFRQAPGKEREFVAGISRRNSGSTYVADSYEDSVKGRFTISRDNAKNTIYLQMNSLKPEDTAVYYCAAEPTLGWYVPRRSVEYEYWGQGTQVTVSS
B3: 5A6 VHH-Fc (Fc fusion)
chain: QVQLVESGGGLAQAGGSLRLSCATSGLTFSMSAMGWFRQAPGNEREFVGVINWNGGSSRYADSVRGRFTISRDNAKNTVYLQMNSLKPEDTGVYYCAADALNIGTGEVNPRLYDYWGQGTQVMVSS
B4: 13C8 VHH-Fc (Fc fusion)
chain: QVQLVESGGGLVQAGGSLRLSCAASGRTVNKYMTGWFRQTPGKEREFVASIDWSSTTTHYANSVKGRFTISRDKVKNTVYLQMNGLKPEDTAVYYCAAHQDSSYGYTILPIDYDSWGQGTQVTVSS
B5: 10B8 VHH (VHH)
VHH: QVQLVESGGGLVQPGGSLRLSCAASGITLDYYAIAWFRQAPGKEREGVSCFCSSDGDIRYADSVKGRFTISRDNAKNTVYLQMNSLKPEDTAVYYCATERVYSSTWFFHRYSELDFGSWGRGTQVTVSS
B6: 20D11 VHH-Fc (Fc fusion)
chain: QVQLVESGGGLVQAGGSLRLSCAASGRTSSIYSVGWFRQAPGKERELVAGITWSGGTTYYSDSVKGRFTISRDNAKNTVNLQMNNLKPEDTAIYYCAVDRYSMTMSARDYDYWGQGTQVTVSS
B7: 14F3 VHH-Fc (Fc fusion)
chain: B6 chain with S33G, G50L, R72K, N80F, R100T, D111E
B8: S3_44 VHH-Fc (Fc fusion)
chain: QVQLVESGGGLVQPGGSLRLSCARSENNFSINAMAWYRQAPGKQRELVAAITTAGTTNYADSVKGRFTISRDNAKTTIYLQMNSLKPEDTAVYYCNLWAGTRDDLNEYWGQGTQVTVSS
B9: S3_29 VHH-Fc (Fc fusion)
chain: B8 chain with A54S
B10: 16H7 VHH-Fc (Fc fusion)
chain: QVQLVESGGGLVQAGGSLRLSCAASGRAFSKDTMGWFRQAPGKEREFVAVISASGDSTYYADFVKGRFTISRDNAKNTEYLQMNSLKPEDTAVYHCAADGARAYYSINAHRYSWAYNYWGQGTQVTVSS
B11: 3D4 VHH-Fc (Fc fusion)
chain: QVQLVESGGGLVQPGGSLRLSCAASGFTLDLNSIGWFRQAPGKEREGVSCISPSGSRMHYADSVKGRFTISRDNAKNTVYLQMNSLKPEDTAVYYCATGSPSYHYCSMYGLEYDSWGQGTQVTVPS
B12: 19C10 VHH-Fc (Fc fusion)
chain: B11 chain with G55A, R57S, M58T, S100T, S115D, P125S
B13: 15H7 VHH-Fc (Fc fusion)
chain: QVQLVESGGRLVQAGGSLRLSCAAPGRTFRNLTLGWFRQAPGKEREFVASTSWPDDEMTYYTDSVKGRFTISRDNAKNTVYLQMNSLKPEDTAVYYCAAASWSGRSTLSYDYDYWGQGTQVTVST
B14: 9B2 VHH-Fc (Fc fusion)
chain: QVQLVESGGGLVQPGGSLRLSCAASGFTLDNYAIGWFRQAPGKEREGVSCISSSDGDTQYADSVKGRFTISRDNAKNTVYLQMNSLKPEDTAVYYCAVEKVYARSWFFHLCSELDFGSWGQGTQVTVSS
B15: 5D7 VHH-Fc (Fc fusion)
chain: QVQLVESGGGLVQAGGSLRLSCAASGRTGSRYIMGWFRQAPGKEREFVAAINWRGDSTYYADSVKGRFTIARDNAKNTAYLQMNSLKPEDTAVYYCVADRGESYYYTRSTEYTYWGQGTQVTVSS
B16: 15H1 VHH-Fc (Fc fusion)
chain: QVQLVESGGGLAQAGGSLRLSCASSGLIFSGSAMGWFRQAPGKEREFVGVISWNGRTTYADSVKGRFTISRDDAVNMVWLQMNNLKPEDTAVYYCAADHLNYGSGDVNPRTYDYWGQGTQVTVSS
B17: 11F5 VHH-Fc (Fc fusion)
chain: QVQLVESGGGAVQAGDSLRLSCTASGRTFSTYAVGWFRQAPGKERELLAAITGSGRNPYYPDSLKGRFTISREYAKLPVYLQMNSLKPEDTAVYYCAARRGAIATMPLDYDHWGQGTQVTVSS
B18: 19E10 VHH-Fc (Fc fusion)
chain: QVQLVESGGGLVQPGGSLRLSCVASGSTISINSMGWYRQAPGKAREMVATITNDGPIKYADPVKGRFTISRDNPKNTVYLQMNSLKPEDTAVYYCVADRAYWLAGEWEYWGQGTQVTVSS
B19: 1A11 VHH-Fc (Fc fusion)
chain: QVQLVESGGGLVQAGGSLRLSCEVSGSIYSINSMGWYRQAPGKQRELVAGIVSDGRINYADSVKGRFTISRAKNTVYLQMNSLKPEDTAVYYCAADRAFVYAGDYDYLGQGTQVTVSS
B20: 19B8 VHH-Fc (Fc fusion)
chain: QVQLVESGGGLVQAGGSLRLSCAASGRTFTNYAMGWFRQAPGKEREFVAAISWSGGGTNYADSVKGRFTISRDNAKNTVYLQMNSPKPEDTAVYYCATTLGYYGSSSRLYEYWGQGTQVTVSS
B21: 8E9 VHH-Fc (Fc fusion)
chain: QVQLVESGGGLVEAGGSLRLSCVASGSSSSINAMGWYRQAPGKQRELVASISHDGETKYANSVKGRFTISRGNAKNTIYLQMNSLKPEDTAVYYCVGDVAWVVVAGEYDYWGQGTQVTVSS

Assays:
[1] = target: SARS-CoV spike on rVSV-deltaG-Luc pseudovirus (SARS-CoV, UniProt P59594 14-1236); assay: cell-based or functional assay
[2] = target: T1, MERS spike protein on recombinant CHO K1 cells (MERS-CoV, UniProt K9N5Q8 18-1353); assay: FACS on CHO K1 cells
T1 sequence: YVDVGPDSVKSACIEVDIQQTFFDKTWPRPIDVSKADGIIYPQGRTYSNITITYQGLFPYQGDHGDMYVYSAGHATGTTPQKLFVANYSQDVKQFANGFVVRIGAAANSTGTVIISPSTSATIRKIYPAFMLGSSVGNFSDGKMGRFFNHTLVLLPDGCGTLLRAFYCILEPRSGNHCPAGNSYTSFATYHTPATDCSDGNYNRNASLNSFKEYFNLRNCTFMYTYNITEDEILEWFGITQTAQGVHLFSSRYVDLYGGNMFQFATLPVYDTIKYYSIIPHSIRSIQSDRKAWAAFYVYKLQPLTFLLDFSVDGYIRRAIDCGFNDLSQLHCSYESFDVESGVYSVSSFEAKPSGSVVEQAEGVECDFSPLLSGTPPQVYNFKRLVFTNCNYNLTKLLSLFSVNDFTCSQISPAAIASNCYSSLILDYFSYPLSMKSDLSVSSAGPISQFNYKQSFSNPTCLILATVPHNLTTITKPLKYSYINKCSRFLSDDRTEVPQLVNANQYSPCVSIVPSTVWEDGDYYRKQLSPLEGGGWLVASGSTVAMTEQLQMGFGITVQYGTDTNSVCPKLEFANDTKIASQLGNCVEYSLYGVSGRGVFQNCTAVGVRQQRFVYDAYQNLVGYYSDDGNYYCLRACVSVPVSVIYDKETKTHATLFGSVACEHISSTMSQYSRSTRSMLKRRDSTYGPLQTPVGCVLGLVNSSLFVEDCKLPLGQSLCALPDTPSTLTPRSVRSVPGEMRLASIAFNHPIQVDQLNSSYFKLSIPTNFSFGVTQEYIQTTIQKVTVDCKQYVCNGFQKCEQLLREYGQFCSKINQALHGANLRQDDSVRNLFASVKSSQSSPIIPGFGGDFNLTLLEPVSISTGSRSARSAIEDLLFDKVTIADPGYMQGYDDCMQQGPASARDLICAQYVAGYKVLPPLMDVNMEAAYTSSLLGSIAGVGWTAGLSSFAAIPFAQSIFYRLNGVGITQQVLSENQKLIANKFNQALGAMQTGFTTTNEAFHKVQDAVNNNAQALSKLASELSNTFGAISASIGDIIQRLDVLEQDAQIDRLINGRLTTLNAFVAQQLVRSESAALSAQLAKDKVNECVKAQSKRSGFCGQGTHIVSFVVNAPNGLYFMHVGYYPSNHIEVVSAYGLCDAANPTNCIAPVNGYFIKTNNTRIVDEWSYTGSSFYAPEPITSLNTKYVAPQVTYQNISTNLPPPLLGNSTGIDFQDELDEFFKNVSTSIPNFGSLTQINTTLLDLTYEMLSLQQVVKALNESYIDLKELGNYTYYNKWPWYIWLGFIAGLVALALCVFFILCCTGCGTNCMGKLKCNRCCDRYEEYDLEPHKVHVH

[3] = target: T2, SARS-CoV-2 spike protein on recombinant CHO K1 cells (SARS-CoV-2, UniProt P0DTC2 14-1273); assay: FACS on CHO K1 cells
T2 construct: whole, on cells

[4] = target: SARS-CoV spike protein on recombinant CHO K1 cells (SARS-CoV, UniProt P59594 14-1255); assay: FACS on CHO K1 cells
[5] = target: spike protein of authentic SARS-CoV-2 virus (SARS-CoV-2, UniProt P0DTC2 14-1273); assay: cell-based or functional assay
[6] = target: spike protein of authentic SARS-CoV/Urbani virus (SARS-CoV, UniProt P59594 14-1255); assay: cell-based or functional assay

Binder | pseudovirus neutralization IC50 [1] [nM] | binding result [2] | EC50 [3] [nM] | EC50 [4] [nM] | authentic virus neutralization IC50 [5] [nM] | authentic virus neutralization IC50 [6] [nM] | EC50 [2] [nM]
B1 | 207 | no binding | 0.08 | 0.09 |  |  | 
B2 |  | no binding | 0.08 | 0.05 |  |  | 
B3 | 6.3 | no binding | 0.43 | 0.21 |  |  | 
B4 | 4.98 | no binding | 0.22 | 0.11 |  |  | 
B5 |  |  |  |  | 2.9 | 0.15 | 
B6 |  | no binding | 0.08 |  |  |  | 
B7 |  | no binding | 0.06 |  |  |  | 
B8 |  |  | 0.08 |  |  |  | 0.11
B9 |  |  | 0.03 |  |  |  | 0.05
B10 |  | no binding | 0.31 |  |  |  | 
B11 | 0.4 | no binding | 0.15 |  |  |  | 
B12 | 0.45 | no binding | 0.17 |  |  |  | 
B13 | 1.71 | no binding | 0.28 | 0.14 |  |  | 
B14 | 0.19 | no binding | 0.21 | 0.13 |  |  | 
B15 | 220 | no binding | 0.12 | 0.09 |  |  | 
B16 | 12.3 | no binding | 0.25 | 0.14 |  |  | 
B17 |  | no binding | 0.04 |  |  |  | 
B18 | 0.12 | no binding | 0.14 | 0.08 |  |  | 
B19 | 0.18 | no binding | 0.13 | 0.06 |  |  | 
B20 | 42 | no binding | 0.04 |  |  |  | 
B21 | 2.94 | no binding | 0.31 | 0.17 |  |  | 

Reference: patent US20250382355A1 (Merck Sharp & Dohme, published 2025)
